Assay results as given in the supplement of paper PMC5998384.

Assays:
HeLa Kyoto [1] = experiment: solubility in G1/S (NP-40 vs SDS abundance) (log2 ratio); higher = more soluble; conditions: cell cycle stage: G1/S
HeLa Kyoto [2] = experiment: melting temperature (median over replicates), in situ; higher = more thermally stable
HeLa Kyoto [3] = experiment: solubility change mitosis vs G1/S (difference of NP-40 vs SDS log2 ratios) (log2 ratio difference); higher = more soluble in mitosis
HeLa Kyoto [4] = experiment: thermal stability score vs G1/S (z-score of summed log2 fold changes over temperatures); higher = more thermally stable than in G1/S
[5] = cell cycle stage: early G1 (4.5 h after nocodazole release)
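Wherever melting temperature (median over replicates), in situ is given: HeLa Kyoto cells synchronized by double thymidine or nocodazole block, proteins quantified by TMT10plex mass spectrometry, three independent biological replicates.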
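Wherever solubility change mitosis vs G1/S (difference of NP-40 vs SDS log2 ratios) is given: synchronized HeLa Kyoto cells (double thymidine block for G1/S, nocodazole release for mitosis), protein amounts in NP-40 versus SDS lysates quantified by mass spectrometry, three biological replicates.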
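Wherever solubility in G1/S (NP-40 vs SDS abundance) is given: HeLa Kyoto cells arrested at G1/S by double thymidine block, proteins quantified by TMT10plex mass spectrometry in mild NP-40 versus SDS extracts, three biological replicates.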
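Wherever thermal stability score vs G1/S (z-score of summed log2 fold changes over temperatures) is given: synchronized HeLa Kyoto cells, proteins quantified by TMT10plex mass spectrometry, three biological replicates, mitosis taken 0.5 h after nocodazole release, G1/S directly after double thymidine block.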

| Substance | solubility in G1/S (log2) (HeLa Kyoto [1]) | melting temperature (HeLa Kyoto [2]; cell cycle stage: G1/S) | melting temperature (HeLa Kyoto [2]; cell cycle stage: mitosis) | solubility change mitosis (log2) (HeLa Kyoto [3]) | thermal stability score (HeLa Kyoto [4]; [5]) | thermal stability score (HeLa Kyoto [4]; cell cycle stage: mitosis) |
| --- | --- | --- | --- | --- | --- | --- |
| ITPR2 | -0.52 | 49.6 °C | 50.4 °C | 0.131 | -0.335 | 0.355 |
| MSVTYDDSVGVEVSSDSFWEVGNYKRTVKRIDDGHRLCSDLMNCLHERARIEKAYAQQLTEWARRWRQLVEKGPQYGTVEKAWMAFMSEAERVSELHLEVKASLMNDDFEKIKNWQKEAFHKQMMGGFKETKEAEDGFRKAQKPWAKKLKEVEAAKKAHHAACKEEKLAISREANSKADPSLNPEQLKKLQDKIEKCKQDVLKTKEKYEKSLKELDQGTPQYMENMEQVFEQCQQFEEKRLRFFREVLLEVQKHLDLSNVAGYKAIYHDLEQSIRAADAVEDLRWFRANHGPGMAMNWPQFEEWSADLNRTLSRREKKKATDGVTLTGINQTGDQSLPSKPSSTLNVPSNPAQSAQSQSSYNPFEDEDDTGSTVSEKDDTKAKNVSSYEKTQSYPTDWSDDESNNPFSSTDANGDSNPFDDDATSGTEVRVRALYDYEGQEHDELSFKAGDELTKMEDEDEQGWCKGRLDNGQVGLYPANYVEAIQ [PACSIN2] | 0.218 | 49.6 °C | 49.7 °C | -0.0385 | 1.11 | 1.7 |
| MSVRVARVAWVRGLGASYRRGASSFPVPPPGAQGVAELLRDATGAEEEAPWAATERRMPGQCSVLLFPGQGSQVVGMGRGLLNYPRVRELYAAARRVLGYDLLELSLHGPQETLDRTVHCQPAIFVASLAAVEKLHHLQPSVIENCVAAAGFSVGEFAALVFAGAMEFAEGLYAVKIRAEAMQEASEAVPSGMLSVLGQPQSKFNFACLEAREHCKSLGIENPVCEVSNYLFPDCRVISGHQEALRFLQKNSSKFHFRRTRMLPVSGAFHTRLMEPAVEPLTQALKAVDIKKPLVSVYSNVHAHRYRHPGHIHKLLAQQLVSPVKWEQTMHAIYERKKGRGFPQTFEVGPGRQLGAILKSCNMQAWKSYSAVDVLQTLEHVDLDPQEPPR [MCAT] | 0.3 | 53.7 °C | 54.9 °C | -0.00154 | -1.29 | -2.74 |
| MSAAKENPCRKFQANIFNKSKCQNCFKPRESHLLNDEDLTQAKPIYGGWLLLAPDGTDFDNPVHRSRKWQRRFFILYEHGLLRYALDEMPTTLPQGTINMNQCTDVVDGEGRTGQKFSLCILTPEKEHFIRAETKEIVSGWLEMLMVYPRTNKQNQKKKRKVEPPTPQEPGPAKVAVTSSSSSSSSSSSIPSAEKVPTTKSTLWQEEMRTKDQPDGSSLSPAQSPSQSQPPAASSLREPGLESKEEESAMSSDRMDCGRKVRVESGYFSLEKTKQDLKAEEQQLPPPLSPPSPSTPNHRRSQVIEKFEALDIEKAEHMETNAVGPSPSSDTRQGRSEKRAFPRKRDFTNEAPPAPLPDASASPLSPHRRAKSLDRRSTEPSVTPDLLNFKKGWLTKQYEDGQWKKHWFVLADQSLRYYRDSVAEEAADLDGEIDLSACYDVTEYPVQRNYGFQIHTKEGEFTLSAMTSGIRRNWIQTIMKHVHPTTAPDVTSSLPEEKNKSSCSFETCPRPTEKQEAELGEPDPEQKRSRARERRREGRSKTFDWAEFRPIQQALAQERVGGVGPADTHEPLRPEAEPGELERERARRREERRKRFGMLDATDGPGTEDAALRMEVDRSPGLPMSDLKTHNVHVEIEQRWHQVETTPLREEKQVPIAPVHLSSEDGGDRLSTHELTSLLEKELEQSQKEASDLLEQNRLLQDQLRVALGREQSAREGYVLQATCERGFAAMEETHQKKIEDLQRQHQRELEKLREEKDRLLAEETAATISAIEAMKNAHREEMERELEKSQRSQISSVNSDVEALRRQYLEELQSVQRELEVLSEQYSQKCLENAHLAQALEAERQALRQCQRENQELNAHNQELNNRLAAEITRLRTLLTGDGGGEATGSPLAQGKDAYELEVLLRVKESEIQYLKQEISSLKDELQTALRDKKYASDKYKDIYTELSIAKAKADCDISRLKEQLKAATEALGEKSPDSATVSGYDIMKSKSNPDFLKKDRSCVTRQLRNIRSKSVIEQVSWDT [MPRIP] | -1.2 | 51.9 °C | 52.6 °C | 0.41 | -0.81 | -1.05 |
| MAAHGGSAASSALKGLIQQFTTITGASESVGKHMLEACNNNLEMAVTMFLDGGGIAEEPSTSSASVSTVRPHTEEEVRAPIPQKQEILVEPEPLFGAPKRRRPARSIFDGFRDFQTETIRQEQELRNGGAIDKKLTTLADLFRPPIDLMHKGSFETAKECGQMQNKWLMINIQNVQDFACQCLNRDVWSNEAVKNIIREHFIFWQVYHDSEEGQRYIQFYKLGDFPYVSILDPRTGQKLVEWHQLDVSSFLDQVTGFLGEHGQLDGLSSSPPKKCARSESLIDASEDSQLEAAIRASLQETHFDSTQTKQDSRSDEESESELFSGSEEFISVCGSDEEEEVENLAKSRKSPHKDLGHRKEENRRPLTEPPVRTDPGTATNHQGLPAVDSEILEMPPEKADGVVEGIDVNGPKAQLMLRYPDGKREQITLPEQAKLLALVKHVQSKGYPNERFELLTNFPRRKLSHLDYDITLQEAGLCPQETVFVQERN [UBXN7] | 0.148 | 52.8 °C | 52.8 °C | -0.138 | -0.156 | -0.248 |
